Target: F-actin labeled at Cys-374 with fluorescein-5-maleimide (FMAL-actin) (rabbit) (UniProt P68135)
Experiment: FRET or BRET

| Kd [µM] | donor lifetime τDA of FMAL-actin with 20 μM TMR-C0-C2^Cys225 (τD = 4.2 ns) [ns] | Substance |
| --- | --- | --- |
| 3 | – | TMR-C0-C2^Cys225 of human cMyBP-C phosphorylated by PKA (domain or fragment) |
| 1 | 2 | single-cysteine C0-C2^Cys225 of human cMyBP-C labeled with tetramethylrhodamine (TMR-C0-C2^Cys225) (domain or fragment) |
